For assay [1], the system named is Hodgkin's disease cell lines. Put plainly: Cytotoxic activity against Hodgkin's disease cell lines (panel). Format: cell-based, human. How it is done: Cell surface CD70 expression was also evaluated in panels of Hodgkin's disease (Table 4) and glioblastoma cell lines (Table 5). The copy number of CD70 molecules expressed by each cell line was determined by quantitative flow cytometry using the QIFIKit® (Dako, Carpinteria, Calif.). The response of these cells to anti-CD70 ADC-mediated cytotoxicity was determined.

Assay [2] concerns CD70-expressing multiple myeloma cells. Put plainly: Cytotoxic activity against multiple myeloma cell lines (panel). Type of assay: cell-based, human. As for the experimental part: Cell surface CD70 expression was evaluated in a panel of multiple myeloma cell lines (Table 3). Copy number of CD70 molecules expressed by each cell line was determined by quantitative flow cytometry using the QIFIKit® (Dako, Carpinteria, Calif.). Response of these cells to anti-CD70 ADC-mediated cytotoxicity was determined.

B1: c1F6-vcMMAF4: chimeric 1F6 (c1F6)-vcMMAF4 anti-CD70 ADC (conjugate)
VH: QIQLVQSGPEVKKPGETVKISCKASGYTFTNYGMNWVKQAPGKGLKWMGWINTYTGEPTYADAFKGRFAFSLETSASTAYLQINNLKNEDTATYFCARDYGDYGMDYWGQGTSVTVSS
VL: DIVLTQSPASLAVSLGQRATISCRASKSVSTSGYSFMHWYQQKPGQPPKLLIYLASNLESGVPARFSGSGSGTDFTLNIHPVEEEDAATYYCQHSREVPWTFGGGTKLEIKR
modifications: non-natural residues
notes: chimeric 1F6 (c1F6)-vcMMAF4 anti-CD70 ADC
For the molecule B1, the “IC50 values, range over the panel” value was in the range of 0.41 to 42 ng/mL in assay [1] and 1.2 to 160 ng/mL in assay [2].

For the origin of these results see patent US8663642B2, “Anti-CD70 antibody-drug conjugates and their use for the treatment and prevention of cancer and immune disorders” (priority 2003, dated 2014).
